Measurements as given in publication PMC5300155, “Biochemical and biophysical investigations of the interaction between human glucokinase and pro-apoptotic BAD” (PLoS ONE, 2017).
“Also recorded” adds a separate entry of the source.

T1: GCK (Homo sapiens, UniProt P35557)
T1 construct: hexahistidine (N); made in house; host or cells: glucokinase auxotroph BM5340(DE3)
T1 sequence (P35557 1-465): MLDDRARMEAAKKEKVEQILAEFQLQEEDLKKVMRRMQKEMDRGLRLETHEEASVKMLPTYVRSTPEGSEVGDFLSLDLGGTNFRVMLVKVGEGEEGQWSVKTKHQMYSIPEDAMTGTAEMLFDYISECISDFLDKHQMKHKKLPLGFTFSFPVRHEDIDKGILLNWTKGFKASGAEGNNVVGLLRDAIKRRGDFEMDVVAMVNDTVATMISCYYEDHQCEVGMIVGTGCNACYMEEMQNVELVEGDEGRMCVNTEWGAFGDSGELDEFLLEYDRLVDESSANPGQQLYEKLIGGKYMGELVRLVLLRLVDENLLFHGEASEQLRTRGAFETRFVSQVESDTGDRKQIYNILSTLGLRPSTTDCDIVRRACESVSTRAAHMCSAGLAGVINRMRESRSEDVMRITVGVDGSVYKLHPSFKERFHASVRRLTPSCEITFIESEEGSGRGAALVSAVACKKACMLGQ

T2: human pancreatic GCK (Homo sapiens, UniProt P35557)
T2 construct: hexahistidine (N); made in house; host or cells: glucokinase auxotroph BM5340(DE3)
T2 sequence (P35557 1-465): T1 sequence (P35557 1-465)

B1: BAD: BAD following cleavage and removal of the GST tag (protein)
chain: MFQIPEFEPSEQEDSSSAERGLGPSPAGDGPSGSGKHHRQAPGLLWDASHQQEQPTSSSHHGGAGAVEIRSRHSSYPAGTEDDEGMGEEPSPFRGRSRSAPPNLWAAQRYGRELRRMSDEFVDSFKKGLPRPKSAGTATQMRQSSSWTRVFQSWWDRNLGRGSSAPSQ
modifications: left off: His6, N-terminal, state not stated | GST, C-terminal, kept
B2: phosphorylated BAD-GST: BAD-GST phosphorylated in vitro with PKAc at S75, S99, S118 (protein)
chain: B1 chain
modifications: phosphoserine at 75, 99 and 118 (all three sites found by mass spectrometry; four populations by isoelectric focusing); left off: His6, N-terminal, state not stated | GST, C-terminal, kept
notes: BAD-GST phosphorylated in vitro with PKAc at S75, S99, S118

Experiments:
GCK [1] = biological target: T1, GCK; assay: Fluorescence polarization, binding of fluorescent BH3 peptides to GCK; details: phosphorylation at position of Ser-118; trifluoroethanol 20–40%; S1 Fig: 34 μM f-pBH3, 40% trifluoroethanol
Procedure: (§1) Recombinant human pancreatic GCK containing an N-terminal hexahistidine tag was produced in the glucokinase auxotroph BM5340(DE3) and purified using a previously described procedure. TEV protease was expressed as a GST-fusion protein from a pGEX plasmid encoding the S219V variant, provided by David Waugh (Addgene plasmid 8827). Expression was induced with IPTG (1 mM) for 4 h at 30°C. Cell pellets were resuspended in Tris buffer (50 mM, pH 8.0) containing NaCl (100 mM), glycerol (10% v/v), benzamidine (1 mM) and dithiothreitol (10 mM) and lysed via French Press. Polyethyleneimine (0.1%) was added to the lysate and protein was purified on a glutathione-affinity column (GSTrap, GE Sciences). TEV protease was flash frozen and stored at -80°C for up to 1 month.
A fluorescence polarization assay developed by Zhang, et al. was utilized to measure interactions between BAD and its binding partners. Two 21-residue FITC-labeled peptides containing the BH3 domain of BAD were synthesized and purified to >95% by Peptide2.0 (f-BH3 = NLWAAQRYGRELRRMSDK(FITC)FVD; f-pBH3 = NLWAAQRYGRELRRM(p)SDK(FITC) FVD). Polarization was measured at room temperature with an excitation wavelength of 485 nm and an emission wavelength of 530 nm using a SpectraMax M5 microplate reader (Molecular Devices). […]

Bcl-xL = biological target: T3, Bcl-xL (Homo sapiens, UniProt Q07817, DEL45-84); assay: Fluorescence polarization competition with f-BH3 for binding to Bcl-xL; details: for IC50: competitor 0–50 μM, room temperature, 15 min
T3 construct: made in house
T3 sequence (Q07817 with tags, fused parts or gaps DEL45-84): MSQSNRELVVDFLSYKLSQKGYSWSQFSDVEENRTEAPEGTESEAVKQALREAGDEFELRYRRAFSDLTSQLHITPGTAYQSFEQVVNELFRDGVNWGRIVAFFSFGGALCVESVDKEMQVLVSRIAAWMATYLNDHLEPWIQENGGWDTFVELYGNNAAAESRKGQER
Procedure: Exon 1 of human bcl-xl lacking the C-terminal residues 189–233 was obtained from Stanley Korsmeyer (Addgene plasmid 8755) and site-directed mutagenesis was performed to create the Δ45–84, Δ210–233 variant. Bcl-xL was expressed and purified using a modified procedure described previously. Briefly, Bcl-xL was purified by nickel affinity chromatography and dialyzed against potassium phosphate buffer (20 mM, pH 7.4) containing NaCl (50 mM), EDTA (1 mM), and DTT (10 mM). Protein was applied to a Superdex 200 10/30 HR size-exclusion column, at a flow rate of 0.02 mL/min, to remove aggregate and oligomers prior to binding assays.
A fluorescence polarization assay developed by Zhang, et al. was utilized to measure interactions between BAD and its binding partners. Two 21-residue FITC-labeled peptides containing the BH3 domain of BAD were synthesized and purified to >95% by Peptide2.0 (f-BH3 = NLWAAQRYGRELRRMSDK(FITC)FVD; f-pBH3 = NLWAAQRYGRELRRM(p)SDK(FITC) FVD). Polarization was measured at room temperature with an excitation wavelength of 485 nm and an emission wavelength of 530 nm using a SpectraMax M5 microplate reader (Molecular Devices). Experiments to measure binding constants of the fluorescent peptides to Bcl-xL or GCK were performed in black 96-well plates. Each well contained 15 nM peptide, 60 μL BAD buffer (0.1 M Tris, 0.1 M KCl, 0.5 M arginine, 2.5 mM CHAPS, 5 mM TCEP, 10% glycerol, pH 8.5) and variable concentrations of Bcl-xL (0–2.25 μM) or GCK (0–400 μM) in assay buffer (20 mM phosphate buffer, pH 7.4, 1 mM EDTA, 50 mM NaCl, 10 mM DTT) in a final volume of 120 μL. High GCK concentrations were chosen in an effort to detect a signal indicating a binding event. Assays containing GCK also contained 250 mM glucose. […] Plates were incubated at room temperature in the dark for 15 min prior to polarization measurements.

human pancreatic GCK [2] = biological target: T2, human pancreatic GCK; assay: GCK activity, G6PDH-linked assay (lab's routine assay, 25°C); type: biochemical
Procedure: as §1
GCK activity was assayed using a glucose 6-phosphate dehydrogenase (G6PDH)-linked assay at 25°C. 50 nM GCK was assayed in buffer containing HEPES (100 mM, pH 7.4), KCl (50 mM), NADP^+ (0.5 mM), DTT (10 mM), MgCl2 (7 mM), G6PDH (1.5 U) and glucose (0–100 mM) in a total volume of […]. Addition of ATP (6 mM) initiated the reaction. Production of NADPH was measured at 340 nm. To determine the effect of BAD on GCK activity, 5 μL of BAD or buffer control was added to the reaction in a final volume of 100 μL. K0.5 values were determined by fitting to the Hill equation. The effect of BAD on GCK activity is reported as the percent rate increase at individual glucose concentrations, calculated as the average of a minimum of four rates of BAD-containing assays divided by the average of rates of BAD buffer-containing assays. The results represent the average of at least three independent preparations of pure BAD.

[3] = Circular dichroism spectroscopy (secondary structure); type: physicochemical; details: relative to (unmodified) BAD-GST, 25°C, pH 7.8
Procedure: Proteins were dialyzed overnight into potassium phosphate buffer (50 mM, pH 7.8) containing KCl (50 mM), glycerol (5% v/v), and TCEP (4 mM). CD spectra were recorded on an AVIV 202 CD spectrometer at 25°C with protein concentrations ranging from 3–15 μM. Spectra were recorded from 200–260 nm in 10 mm pathlength cuvettes using a 1 nm step resolution and 3 s integration time. Three scans were recorded per sample, averaged, and baseline subtracted with appropriate buffer controls. CD signals were converted to molar ellipticity and deconvoluted using CDPro Software.

BAD-deficient islets = details: ref [8]; cited from earlier work
From the text: The mitochondrial complex fails to form in the absence of BAD, resulting in reduced glucose-driven oxygen consumption and impaired GSIS in β-cells. […] In hepatocytes, BAD deficiency results in insulin resis ...

GCK [4] = details: rabbit reticulocyte lysates; ref [8]; cited from earlier work
From the text: Several lines of evidence support a direct interaction between GCK and BAD. […] Kinetic assays re ... || The first indication of a putative interaction between full-length BAD and GCK came from the observation that both proteins co-localize with one another in a macromolecular complex purified from mouse hepatocyte mitochondrial extracts. […] In contrast to these experiments, our study utilizes active, highly purified homogeneous preparations of both proteins. The biochemical and biophysical e ...

human pancreatic GCK [5] = biological target: T2, human pancreatic GCK; assay: Analytical ultracentrifugation sedimentation velocity of equimolar mixtures with GCK; type: binding; details: equimolar mixture, BAD buffer pH 8.5, 20°C, 50,000 x g
Procedure: (§2) Sedimentation velocity experiments were conducted with an Optima XLI Ultracentrifuge (Beckman Coulter) using a four-hole rotor with three 420 μL samples in standard double-sector Epon centerpieces equipped with sapphire windows. Absorbance and interference data were collected simultaneously. Size-exclusion purified proteins were concentrated to OD280 nm = 0.3–1.0 prior to centrifugation. For complex formation, proteins were mixed in a 1:1 molar ratio in BAD buffer (0.1 M Tris, 0.1 M KCl, 0.5 M arginine, 2.5 mM CHAPS, 5 mM TCEP, 10% glycerol, pH 8.5) and incubated on ice 30 min prior to the start of the experiment. Experiments were carried out at 20°C and 50,000 x g. Data were analyzed with Ultrascan III software using a minimum of 70 scans per sample for analysis. Van Holde-Weischet analysis was performed to obtain S20,W values.

[6] = Analytical ultracentrifugation sedimentation velocity (oligomerization, shape); type: physicochemical; details: sedimentation velocity, 20°C, 50,000 x g; unity = compact sphere
Procedure: as §2

[7] = Isoelectric focusing of phosphorylated BAD-GST; type: physicochemical; details: IEF, IPG strips pH 4–7; four distinct populations
Procedure: Recombinant BAD-GST was phosphorylated with PKAc after refolding. 1 unit PKAc was added to 10 units BAD-GST and the reaction was dialyzed against BAD refolding buffer (0.1 M Tris, 0.1 M KCl, 0.2 M arginine, 2.5 mM CHAPS, 5 mM DTT, 10% glycerol, pH 8.5) containing ATP (3 mM) and MgCl2 (20 mM). Reactions were carried out at 4°C overnight. PKAc and excess ATP were removed from BAD-GST via glutathione-affinity chromatography (GSTrap, GE Healthcare). The extent of phosphorylation was established via mass spectrometry and 2D-IEF-SDS-PAGE using ReadyStrip IPG strips (Bio-Rad) with a pH range of 4–7. pET28badgst was subjected to site-directed mutagenesis to remove sites of phosphorylation (Ser-to-Ala) or to incorporate phosphorylation mimics (Ser-to-Asp) using the QuikChange™ Site-directed mutagenesis kit (Stratagene).

Molecule | Binding to GCK, phosphorylated fluorescent peptide / trifluoroethanol (GCK [1]) | IC50 (Bcl-xL; 200 nM f-BH3, 50 nM Bcl-xL) [nM] | Increase in GCK activity, GST tag removed (human pancreatic GCK [2]; 0.5, 0.78 and 1.0 mM glucose, data not shown) | CD comparison (in words) [3] | Effect on impaired insulin response or GSIS of BAD-deficient islets (BAD-deficient islets) | Coimmunoprecipitation with GCK (GCK [4]) | Competition with f-BH3 binding to Bcl-xL (in words) (Bcl-xL; 200 nM f-BH3, 50 nM Bcl-xL, GST up to 10 μM, BAD-GST phosphorylated by PKA) | Ability to interact with Bcl-xL (in words) (Bcl-xL; ITC and fluorescence polarization assays) | Complex with GCK by analytical ultracentrifugation (human pancreatic GCK [5]) | Increase in GCK activity over unmodified BAD-GST (human pancreatic GCK [2]; 1.0 mM glucose, BAD-GST phosphorylated by PKA) [%] | Hill coefficient H of GCK in presence of pBAD-GST (human pancreatic GCK [2]; Fig 6A, GCK alone: H = 1.7) | K0.5 (glucose) of GCK in presence of pBAD-GST (human pancreatic GCK [2]; Fig 6A, GCK alone: K0.5 = 8.6 mM, Hill equation fit) [mM] | kcat of GCK in presence of pBAD-GST (human pancreatic GCK [2]; Fig 6A, GCK alone: kcat = 38.1 s^-1) [s^-1] | Difference in effect on GCK activity, phosphorylated versus unmodified BAD-GST (human pancreatic GCK [2]; all glucose concentrations other than 1.0 mM) | Maximum increase in GCK activity (human pancreatic GCK [2]; glucose below K0.5, phosphorylated BAD > 2 μM) [%] | Frictional ratio f/f0 [6] | pI values [7]
NLWAAQRYGRELRRM(p)SDK(FITC) FVD [f-pBH3, 21-residue FITC-labeled phosphorylated peptide containing the BH3 domain of BAD] | does not affect f-pBH3 binding to GCK | – | – | – | – | – | – | – | – | – | – | – | – | – | – | – | –
B1 | – | 440 | 7–12% | nearly identical | restores GSIS | co-immunoprecipitates with GCK; also recorded: can coimmunoprecipitate with GCK | – | – | – | – | – | – | – | – | – | – | –
B2 | – | ≥ 1600 | – | a higher degree of α-helical content compared to unmodified BAD-GST | – | – | abrogrates the protein’s ability to compete with f-BH3 | significantly impaired in their ability to interact with Bcl-xL | no evidence of a higher molecular weight complex | 5 | 1.6 | 8.8 | 38.4 | no statistical difference | 15 | 3.1 | 4–7
